Consider one substance from US20110059051A1.

The target in the test is Gal4-DNA binding domain fusion with PGC-1α (yeast) (UniProt P04386). In words: cell-based or functional assay.

The substance “PRDM16 expressed from pcDNA-Prdm16 plasmid in cos7 cells (from UniProt A2A935 1-1275)” had a transactivation of the UAS-Firefly Luciferase reporter by gal4-pgc1α of 200 fold.
